This note sets out measurements from patent US20090317397A1 (published 2009).

Test [1] deals with CTLA4Ig fusion protein (human) (UniProt P16410). Put plainly: solid phase binding, 4 nM ^125I-B7Ig on immobilized CTLA4Ig.
The target is the same in test [2]. Briefly: solid phase competition, ^125I-B7Ig (4 nM) on immobilized CTLA4Ig.
Test [3] has the same target. Briefly: Scatchard plot of the solid phase competition data, immobilized CTLA4Ig.
Test [4] deals with T1, B7 antigen (B7-1) stably expressed on CHO cells (UniProt P33681 35-288, limits assumed).
T1 construct: whole, on cells; also called B7+CHO cells; B7 positive CHO cells
T1 sequence (looked up): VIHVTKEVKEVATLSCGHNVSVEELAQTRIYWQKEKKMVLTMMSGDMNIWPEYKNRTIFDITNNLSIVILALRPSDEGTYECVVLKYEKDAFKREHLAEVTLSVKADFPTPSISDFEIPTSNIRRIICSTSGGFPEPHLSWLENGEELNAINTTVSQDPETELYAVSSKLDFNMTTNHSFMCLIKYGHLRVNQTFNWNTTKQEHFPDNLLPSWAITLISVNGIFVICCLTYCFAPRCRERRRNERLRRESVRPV
Briefly: cell enzyme immunoassay on fixed B7-1+ CHO cells.

As usually defined, the IC50 is the midpoint of a concentration-inhibition curve. The term Kd denotes the free concentration of one partner at which half of the binding sites on the other are occupied at equilibrium, for simple one-to-one binding.

Numbering of substitutions follows the chain as printed.

Take “B7Ig fusion protein (from UniProt P33681 35-241) (Fc fusion)”: in test [1], the radioactivity bound to wells treated without competitor was 28300 cpm. This molecule also showed a concentration for half-maximal inhibition (IC50) in test [2] of 175 nM. The same molecule came in with a dissociation constant (Kd) in test [3] of 12 nM.

B1: CTLA4/CD28Ig hybrid fusion protein HS4 (Fc fusion)
chain: NKILVKQSPMLVAYDNAVNLSCKYSYNLFSREFRASLHKGLDSAVEVCVVYGNYSQQLQVYSKTGFNCDGKLGNESVTFYLQNLYVNQTDIYFCKIELMYPPPYYLGIGNGTQIYVIDPEPCPD
notes: range 1-96; also called the CD28Ig analog; not shown: human IgG1 hinge (Cys to Ser), CH2, CH3; junction printed as DQE
As for B1, in test [4], the “fold less binding than wild type CTLA4Ig” value was about 5 fold and the “increase in binding relative to CD28Ig” value was ~2.5 orders of magnitude.

B2: CTLA4/CD28Ig hybrid fusion protein HS4-A (Fc fusion)
chain: B1 chain with Y115H, I117K, D118G, P119K, E120H, P121L, D124S
notes: not shown: human IgG1 hinge (Cys to Ser), CH2, CH3; junction printed as DQE
As to B2, the “% of wild type binding” value in test [4] was about 2%.

B3: CTLA4/CD28Ig hybrid fusion protein HS10 (Fc fusion)
chain: B1 chain with V50A, Y51T, G52Y, N53M, Y54M, S55G, Q56N, Q57E
notes: range 1-49;range 58-96; not shown: human IgG1 hinge (Cys to Ser), CH2, CH3; junction printed as DQE
With B3, the binding result in test [4] was “binds”.

B4: CTLA4/CD28Ig hybrid fusion protein HS7 (Fc fusion)
chain: B1 chain with S25A, Y26S, N27P, L28G, F29K, S30A, R31T
notes: range 1-24;range 33-96; not shown: human IgG1 hinge (Cys to Ser), CH2, CH3; junction printed as DQE
Turning to B4, the “% binding activity relative to CTLA4Ig” value in test [4] is about 44%.

B5: CTLA4/CD28Ig hybrid fusion protein HS2 (Fc fusion)
chain: AMHVAQPAVVLASSRGIASFVCKYSYNLFSREFRASLHKGLDSAVEVCVVYGNYSQQLQVYSKTGFNCDGKLGNESVTFYLQNLYVNQTDIYFCKIELMYPPPYYLGIGNGTQIYVIDPEPCPDSD
notes: range 23-96; not shown: human IgG1 hinge (Cys to Ser), CH2, CH3; junction printed as DQE
B5: the binding result in test [4] is given as “binds”.

B6: CTLA4/CD28Ig hybrid fusion protein HS9 (Fc fusion)
chain: NKILVKQSPMLVAYDNAVNLSCKYASPGKATEFRASLHKGLDSAVEVCVVYGNYSQQLQVYSKTGFNCDGKLGNESVTFYLQNLYVNQTDIYFCKIEVMYPPPYLDNEKSNGTIIYVIDPEPCPD
notes: range 1-24;range 33-115; not shown: human IgG1 hinge (Cys to Ser), CH2, CH3; junction printed as DQE
Regarding B6, the binding result in test [4] is listed as “binds”.

B7: CTLA4/CD28Ig hybrid fusion protein HS5 (Fc fusion)
chain: B6 chain with Y116H, I118K, D119G, P120K, E121H, P122L, D125S
notes: CD28Ig itself runs to about 134; not shown: human IgG1 hinge (Cys to Ser), CH2, CH3; junction printed as DQE
Regarding B7, in test [4], the binding result is reported as “binds”.

B8: CTLA4/CD28Ig hybrid fusion protein HS4-B (Fc fusion)
chain: B6 chain with A25S, S26Y, P27N, G28L, K29F, A30S, T31R
notes: range 1-115; not shown: human IgG1 hinge (Cys to Ser), CH2, CH3; junction printed as DQE
Turning to B8, in test [4], the binding result was “binds”.

B9: CTLA4/CD28Ig hybrid fusion protein HS12 (Fc fusion)
chain: NKILVKQSPMLVAYDNAVNLSCKYSYNLFSREFRASLHKGLDSAVEVCVATYMMGNELQVYSKTGFNCDGKLGNESVTFYLQNLYVNQTDIYFCKIELMYPPPYYLGIGNGTQIHVKGKHLCPS
notes: as for B2
For B9, in test [4], the binding result is listed as “binds”.

B10: CTLA4/CD28Ig hybrid fusion protein HS8 (Fc fusion)
chain: NKILVKQSPMLVAYDNAVNLSCKYASPGKATEFRASLHKGLDSAVEVCVVYGNYSQQLQVYSKTGFNCDGKLGNESVTFYLQNLYVNQTDIYFCKIELMYPPPYYLGIGNGTQIHVKGKHLCPS
notes: as for B2
As for B10, the “% of wild type binding” value in test [4] was about 60%.

B11: CTLA4/CD28Ig hybrid fusion protein HS11 (Fc fusion)
chain: NKILVKQSPMLVAYDNAVNLSCKYASPGKATEFRASLHKGLDSAVEVCVATYMMGNELQVYSKTGFNCDGKLGNESVTFYLQNLYVNQTDIYFCKIELMYPPPYYLGIGNGTQIYVIDPEPCPD
notes: range 1-24;range 33-49;range 58-96; not shown: human IgG1 hinge (Cys to Ser), CH2, CH3; junction printed as DQE
B11: in test [4], the binding result is “binds”.

B12: CTLA4/CD28Ig hybrid fusion protein HS13 (Fc fusion)
chain: B11 chain with Y115H, I117K, D118G, P119K, E120H, P121L, D124S
notes: as for B2
In the case of B12, the binding result in test [4] was “binds”.

B13: CTLA4/CD28Ig hybrid fusion protein HS6 (Fc fusion)
chain: AMHVAQPAVVLASSRGIASFVCEYSYNLFSREVRVTVLRQADSQVTEVCAATYMMGNELTFLDDSICTGTSSGNQVNLTIQGLRAMDTGLYICKVELMYPPPYYLGIGNGTQIYVIDPEPCPDSD
notes: range 25-32; not shown: human IgG1 hinge (Cys to Ser), CH2, CH3; junction printed as DQE
Regarding B13, the binding result in test [4] was “binds”.
